The values that follow are results of earlier work, collected in article PMC4660202.

The target of the series is IZUMO1 ECD (Mus musculus) (UniProt Q9D9J7).
UniProt Q9D9J7, sequence (Q9D9J7 22-319): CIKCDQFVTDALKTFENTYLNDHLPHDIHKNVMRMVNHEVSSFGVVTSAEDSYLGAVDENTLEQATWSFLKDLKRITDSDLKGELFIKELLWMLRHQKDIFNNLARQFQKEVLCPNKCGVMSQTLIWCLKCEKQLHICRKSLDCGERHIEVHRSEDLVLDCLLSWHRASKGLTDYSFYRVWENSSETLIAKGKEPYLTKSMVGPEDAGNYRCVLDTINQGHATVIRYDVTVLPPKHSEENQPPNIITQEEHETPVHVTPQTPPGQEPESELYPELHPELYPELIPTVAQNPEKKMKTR

With JUNO (from UniProt Q9EQF4), the Kd was 12.3 µM.

A word on the Kd: it is the equilibrium constant for the complex coming apart.
